Measured values taken from patent publication US8524227B2, “Anti-IL-TIF antibodies” (ZymoGenetics, Inc., priority 2002, dated 2013).

Key:
BaF3/CRF2-4 cells = assay: Alamar Blue proliferation assay, BaF3/CRF2-4 cells; type: cell-based, murine
BaF3 wild type cells = assay: Alamar Blue proliferation assay, BaF3 wild type cells; type: cell-based, murine
[1] = target: T1, CRF2-4/zcytor11 heterodimeric receptor (Homo sapiens, UniProt Q08334+Q8N6P7, R518G); assay: Alamar Blue proliferation assay, BaF3/CRF2-4/zcytor11 cells; type: cell-based; conditions: 50 ng/ml IL-TIF-CEE
T1 construct: BaF3 cells expressing the full-length CFR2-4 receptor were constructed; expressed in transfected cells
T1 sequence (Q8N6P7 16-574 R518G): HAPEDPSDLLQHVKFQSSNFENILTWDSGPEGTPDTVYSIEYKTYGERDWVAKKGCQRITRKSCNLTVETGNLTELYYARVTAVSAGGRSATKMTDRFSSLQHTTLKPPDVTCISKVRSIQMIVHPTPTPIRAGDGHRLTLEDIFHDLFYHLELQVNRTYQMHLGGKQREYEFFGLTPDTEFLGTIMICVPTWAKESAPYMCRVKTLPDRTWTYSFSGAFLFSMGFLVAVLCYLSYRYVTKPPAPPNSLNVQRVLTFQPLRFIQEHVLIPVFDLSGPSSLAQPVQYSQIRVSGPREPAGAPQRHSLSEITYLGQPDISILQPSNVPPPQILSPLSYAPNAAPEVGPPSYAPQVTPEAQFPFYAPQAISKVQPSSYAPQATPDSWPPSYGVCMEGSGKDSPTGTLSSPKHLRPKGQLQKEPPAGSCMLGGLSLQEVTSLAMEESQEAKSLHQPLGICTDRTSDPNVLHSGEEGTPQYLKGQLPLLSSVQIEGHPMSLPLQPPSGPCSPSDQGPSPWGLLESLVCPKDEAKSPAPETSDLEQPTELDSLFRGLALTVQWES
T1 sequence (Q08334 20-325): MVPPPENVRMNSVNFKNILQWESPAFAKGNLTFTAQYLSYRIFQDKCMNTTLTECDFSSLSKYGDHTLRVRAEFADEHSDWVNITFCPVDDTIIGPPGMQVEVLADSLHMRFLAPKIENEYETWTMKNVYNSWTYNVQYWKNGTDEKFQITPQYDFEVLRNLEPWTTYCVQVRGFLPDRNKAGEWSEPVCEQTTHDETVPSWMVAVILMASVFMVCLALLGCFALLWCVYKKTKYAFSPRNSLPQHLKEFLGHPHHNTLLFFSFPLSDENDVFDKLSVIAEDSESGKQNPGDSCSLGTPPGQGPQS
Experimental: BaF3/CRF2-4/zcytor11 cells were spun down and washed in the complete media, described in Example 21A above, but without mIL-3 (hereinafter referred to as “mIL-3 free media”). The cells were spun and washed 3 times to ensure the removal of the mIL-3 Cells were then counted in a hemacytometer. Cells were plated in a 96-well format at 5000 cells per well in a volume of 100 μl per well using the mIL-3 free media.
Proliferation of the BaF3/CRF2-4/zcytor11 cells was assessed using IL-TIF-CEE protein diluted with mIL-3 free media to 50, 10, 2, 1, 0.5, 0.25, 0.13, 0.06 ng/ml concentrations. 100 μl of the diluted protein was added to the BaF3/CRF2-4/zcytor11 cells. The total assay volume is 200 μl. […] Alamar Blue gives a fluourometric readout based on number of live cells, and is thus a direct measurement of cell proliferation in comparison to a negative control. […] Plates were read on the Finax™ plate reader (Molecular Devices Sunnyvale, Calif.) using the SoftMax™ Pro program, at wavelengths 544 (Excitation) and 590 (Emmission). […] The response, as measured, was approximately 15-fold over background at the high end of 50 ng/ml down to a 2-fold induction at the low end of 0.06 ng/ml. […]
IL-TIF protein (SEQ ID NO:3) was diluted to 200 pg/ml in mIL-3 free media. […] Plates were read on the Wallac Victor 2 1420 Multilabel Counter (Wallac, Turku, Finland) at wavelengths 530 (Excitation) and 590 (Emmssion). […]

proliferative response over background [1]: approximately 15 fold
B1: IL-TIF-CEE: IL-TIF polypeptide containing C-terminal GluGlu (EE) tag, purified from BHK 570 cells (protein)
chain: APISSHCRLDKSNFQQPYITNRTFMLAKEASLADNNTDVRLIGEKLFHGVSMSERCYLMKQVLNFTLEEVLFPQSDRFQPYMQEVVPFLARLSNRLSTCHIEGDDLHIQRNVQKLKDTVKKLGESGEIKAIGELDLLFMSLRNACIEYMPME
proliferation in response to IL-TIF-CEE (BaF3/CRF2-4 cells): did not proliferate
proliferation in response to IL-TIF-CEE (BaF3 wild type cells): did not proliferate
